In the RNAGym collection of RNA variant scans (doi:10.1073/pnas.2313332121):
This sample holds only a part of the variants without activity.

B1: TPR 5TU (parent)
chain: GGAUCUUCUCGAUCUAACAAAAAAGACAAAUCUGCCACAAAGCUUGAGAGCAUCUUCGGAUGCAGAGGCGGCAGCCUUCGGUGGCGCGAUAGCGCCAACGUUCUCAACUAUGACACGCAAAACGCGUGCUCCGUUGAAUGGAGUUUAUCAUG

Variants of: B1
Assay: polymerase ribozyme fitness, log enrichment relative to wild type (log ratio); higher = more active; in vitro selection for triplet polymerase activity
Outline: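 Each subunit of a heterodimeric triplet polymerase ribozyme was mutagenized into a library by PCR, transcribed, and subjected to one round of in vitro selection, run in triplicate. Libraries were annealed with a biotinylated primer, the partner subunit and triplets, incubated frozen at −7 °C, and extended constructs were gel-excised, captured on streptavidin beads and recovered by RT-PCR. Input and output libraries were sequenced on Illumina, keeping genotypes with ≥10 input reads and ≥1 read per output. Fitness is log base 2 of genotype enrichment divided by wild-type enrichment, from inverse-variance-weighted replicate averages.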

C14G U78A G86A and U15G A22C U148G cannot be ordered by “polymerase ribozyme fitness (log ratio)” value: no more than -4.2 for the first, no more than -4.2 for the second.

First: C14G U102A
Second: C14U C43U C72A G84A C93G C95G A142G U144A
The “polymerase ribozyme fitness (log ratio)” value of the first is higher: -4.05 for the first, no more than -4.2 for the second.

First: C14U C105G
Second: C14U C76A C87U
The “polymerase ribozyme fitness (log ratio)” value of the first is higher: -3.25 for the first, -3.49 for the second.

Compared with U15G A39U U82G G84A G112U, C14G U31G is higher in “polymerase ribozyme fitness (log ratio)” value: no more than -4.2 for the first, -2.12 for the second.

Compared with C14U C54U C87A A89G C96U A121U A142C, U15G G84A C96A A119U is higher in “polymerase ribozyme fitness (log ratio)” value: no more than -4.2 for the first, -2.08 for the second.

Going from U15C A122U to U15A C38U G58A U61G G68A G83A C87G A106C U145C, the “polymerase ribozyme fitness (log ratio)” value falls from 0.45 to no more than -4.2.

C14U A28U C96G and C14U A26C G48C U53G C54A C93A U145A U148C cannot be ordered by “polymerase ribozyme fitness (log ratio)” value: no more than -4.2 for the first, no more than -4.2 for the second.

Compared with U15G U82C G94A, U15G C43U G59A G94U is lower in “polymerase ribozyme fitness (log ratio)” value: -1.01 for the first, no more than -4.2 for the second.

U15G A20C G42U A52G C85U C93G C103A and U15C C54A G62A U78A G88C A113C A150U cannot be ordered by “polymerase ribozyme fitness (log ratio)” value: no more than -4.2 for the first, no more than -4.2 for the second.

First: A16C A17C A20U A30U A37C U55G C93G C103A A119G
Second: U15C A21C U56C G83A
The “polymerase ribozyme fitness (log ratio)” value of the first is lower: no more than -4.2 for the first, -0.11 for the second.

First: U15G C76G G86C A122U G133C A142G U148G
Second: U15C A16G G59U A60G G92A C116U
The “polymerase ribozyme fitness (log ratio)” value of the first is lower: no more than -4.2 for the first, -0.967 for the second.

U15G C35G G50C C96G G143U and U15G A60G C87G C103G A147C cannot be ordered by “polymerase ribozyme fitness (log ratio)” value: no more than -4.2 for the first, no more than -4.2 for the second.

First: C14U G94C A107G G117A A142U
Second: U15G G92U A147U
The “polymerase ribozyme fitness (log ratio)” value of the first is lower: no more than -4.2 for the first, 0.901 for the second.

Going from C14G U33C U56A C85A C99G G117U C123U to C14G U127G, the “polymerase ribozyme fitness (log ratio)” value falls from -3.91 to -4.18.

First: U15C U55G
Second: U15G A47C C57U C96A C108G
The “polymerase ribozyme fitness (log ratio)” value of the first is higher: 0.263 for the first, no more than -4.2 for the second.

First: U15C U53A A98G C105G U146G
Second: C14G U33C G84U G94A
The “polymerase ribozyme fitness (log ratio)” value of the first is lower: no more than -4.2 for the first, -4.16 for the second.

U15G A24C C35A A107U A147U and U15G A22C A60G A73U C76G C103A A122U U151A cannot be ordered by “polymerase ribozyme fitness (log ratio)” value: no more than -4.2 for the first, no more than -4.2 for the second.

Compared with U15G C27U G83A A121C, C14U A28U A122G G141C is lower in “polymerase ribozyme fitness (log ratio)” value: -2.52 for the first, -4.15 for the second.

Compared with U15G C72U C87A U134A A150C U151G, C14U A52C U56A A97U A98U is higher in “polymerase ribozyme fitness (log ratio)” value: no more than -4.2 for the first, -4.07 for the second.

Compared with U15C C57U G59A G68U G84C C129A, U15A C85A is higher in “polymerase ribozyme fitness (log ratio)” value: no more than -4.2 for the first, -1.53 for the second.

First: C14U C87U
Second: C14U C87A
The “polymerase ribozyme fitness (log ratio)” value of the first is higher: -2.18 for the first, no more than -4.2 for the second.

First: C14U G94A
Second: C14U G94C
The “polymerase ribozyme fitness (log ratio)” value of the first is higher: -1.85 for the first, -2.9 for the second.

Compared with C14U A20U A24U G42A A49C C57A A60C U104G C114A A115C, U15G C96A is higher in “polymerase ribozyme fitness (log ratio)” value: no more than -4.2 for the first, -0.302 for the second.

First: U15G C96U
Second: U15C C51A G86U
The “polymerase ribozyme fitness (log ratio)” value of the first is higher: -1.19 for the first, -1.6 for the second.

Compared with U15C A49G C85U U109G, A16C A17G G58U C87A C93A is lower in “polymerase ribozyme fitness (log ratio)” value: -0.987 for the first, no more than -4.2 for the second.

C14U A17U A24G A41C C51U U56A C93A A115C and U15G A39U C72U A91U A147U A150C cannot be ordered by “polymerase ribozyme fitness (log ratio)” value: no more than -4.2 for the first, no more than -4.2 for the second.

First: C14U A122G
Second: C14U G46A C54A C132A
The “polymerase ribozyme fitness (log ratio)” value of the first is higher: -1.71 for the first, no more than -4.2 for the second.

First: C14U A17G G70C G80A A137U
Second: U15C A37U C118U
The “polymerase ribozyme fitness (log ratio)” value of the first is lower: no more than -4.2 for the first, -0.404 for the second.

Compared with U15C A22G, U15G A110G is lower in “polymerase ribozyme fitness (log ratio)” value: 1.56 for the first, -3.59 for the second.

First: U15A A19U C57G G86A
Second: C14U G48A A64C U90C U102G C103G A115G A122G U127A A150C
The “polymerase ribozyme fitness (log ratio)” value of the first is higher: -1.7 for the first, no more than -4.2 for the second.

First: C14U A16C C51U A52G C93U C116A A121C
Second: C14U U145A
The “polymerase ribozyme fitness (log ratio)” value of the first is lower: -1.81 for the first, -1.55 for the second.

Compared with U15G A19U A91U, C14U U144G is higher in “polymerase ribozyme fitness (log ratio)” value: -3.99 for the first, -0.898 for the second.

Going from U15G A21U C85U A121U A138G to U15C C38A U61A C87U A122G, the “polymerase ribozyme fitness (log ratio)” value rises from -4.04 to -2.73.

C14U C87U C99U U101G A137C U145G and U15G A17U C79G G80A G81U G92A G124A A147U cannot be ordered by “polymerase ribozyme fitness (log ratio)” value: no more than -4.2 for the first, no more than -4.2 for the second.

Going from U15C A22C C85U U127C to U15A G50U G86A C114U, the “polymerase ribozyme fitness (log ratio)” value falls from -2 to -3.13.

Going from C14U C35A A40G G84A to C14U C57U, the “polymerase ribozyme fitness (log ratio)” value rises from no more than -4.2 to -1.27.

C14G U56G C57U C63U C72U U151G and U15G C85U C87A cannot be ordered by “polymerase ribozyme fitness (log ratio)” value: no more than -4.2 for the first, no more than -4.2 for the second.

Compared with C14U A29U G71A G88C C93A, C14U A52U C54A G83U C96G A98U is higher in “polymerase ribozyme fitness (log ratio)” value: no more than -4.2 for the first, -3.86 for the second.

C14G U53A C85G U90A A91U C99A C118A A120U and U15C A64C G71A G100A C118U cannot be ordered by “polymerase ribozyme fitness (log ratio)” value: no more than -4.2 for the first, no more than -4.2 for the second.

First: A16C A17G C96G C118U
Second: U15G A19U A20U A29G U56A C57A C63U G94A U145G
The “polymerase ribozyme fitness (log ratio)” value of the first is higher: -1.74 for the first, no more than -4.2 for the second.

Going from U15G G84A to U15A G48C G83U, the “polymerase ribozyme fitness (log ratio)” value falls from -1.57 to -2.41.

U15C A24G C76U U145A and C14G U31A G68A G86A A91G C108A C118G cannot be ordered by “polymerase ribozyme fitness (log ratio)” value: no more than -4.2 for the first, no more than -4.2 for the second.
